Test results published in paper PMC2716658 (Nature structural & molecular biology, 2009).

B1: Nap1 (natural protein)
chain: MSRSVLQPSQQKLAEKLTILNDRGVGMLTRLYNIKKACGDPKAKPSYLIDKNLESAVKFIVRKFPAVETRNNNQQLAQLQKEKSEILKNLALYYFTFVDVMEFKDHVCELLNTIDVCQVFFDITVNFDLTKNYLDLIITYTTLMILLSRIEERKAIIGLYNYAHEMTHGASDREYPRLGQMIVDYENPLKKMMEEFVPHSKSLSDALISLQMVYPRRNLSADQWRNAQLLSLISAPSTMLNPAQSDTMPCEYLSLDAMEKWIIFGFILCHGILNTDATALNLWKLALQSSSCLSLFRDEVFHIHKAAEDLFVNIRGYNKRINDIRECKEAAVSHAGSMHRERRKFLRSALKELATVLSDQPGLLGPKALFVFMALSFARDEIIWLLRHADNMPKKSADDFIDKHIAELIFYMEELRAHVRKYGPVMQRYYVQYLSGFDAVVLNELVQNLSVCPEDESIIMSSFVNTMTSLSVKQVEDGEVFDFRGMRLDWFRLQAYTSVSKASLGLADHRELGKMMNTIIFHTKMVDSLVEMLVETSDLSIFCFYSRAFEKMFQQCLELPSQSRYSIAFPLLCTHFMSCTHELCPEERHHIGDRSLSLCNMFLDEMAKQARNLITDICTEQCTLSDQLLPKHCAKTISQAVNKKSKKQTGKKGEPEREKPGVESMRKNRLVVTNLDKLHTALSELCFSINYVPNMVVWEHTFTPREYLTSHLEIRFTKSIVGMTMYNQATQEIAKPSELLTSVRAYMTVLQSIENYVQIDITRVFNNVLLQQTQHLDSHGEPTITSLYTNWYLETLLRQVSNGHIAYFPAMKAFVNLPTENELTFNAEEYSDISEMRSLSELLGPYGMKFLSESLMWHISSQVAELKKLVVENVDVLTQMRTSFDKPDQMAALFKRLSSVDSVLKRMTIIGVILSFRSLAQEALRDVLSYHIPFLVSSIEDFKDHIPRETDMKVAMNVYELSSAAGLPCEIDPALVVALSSQKSENISPEEEYKIACLLMVFVAVSLPTLASNVMSQYSPAIEGHCNNIHCLAKAINQIAAALFTIHKGSIEDRLKEFLALASSSLLKIGQETDKTTTRNRESVYLLLDMIVQESPFLTMDLLESCFPYVLLRNAYHAVYKQSVTSSA
B2: Sra1 (natural protein)
chain: MAAQVTLEDALSNVDLLEELPLPDQQPCIEPPPSSLLYQPNFNTNFEDRNAFVTGIARYIEQATVHSSMNEMLEEGQEYAVMLYTWRSCSRAIPQVKCNEQPNRVEIYEKTVEVLEPEVTKLMNFMYFQRNAIERFCGEVRRLCHAERRKDFVSEAYLITLGKFINMFAVLDELKNMKCSVKNDHSAYKRAAQFLRKMADPQSIQESQNLSMFLANHNKITQSLQQQLEVISGYEELLADIVNLCVDYYENRMYLTPSEKHMLLKVMGFGLYLMDGSVSNIYKLDAKKRINLSKIDKYFKQLQVVPLFGDMQIELARYIKTSAHYEENKSRWTCTSSGSSPQYNICEQMIQIREDHMRFISELARYSNSEVVTGSGRQEAQKTDAEYRKLFDLALQGLQLLSQWSAHVMEVYSWKLVHPTDKYSNKDCPDSAEEYERATRYNYTSEEKFALVEVIAMIKGLQVLMGRMESVFNHAIRHTVYAALQDFSQVTLREPLRQAIKKKKNVIQSVLQAIRKTVCDWETGHEPFNDPALRGEKDPKSGFDIKVPRRAVGPSSTQLYMVRTMLESLIADKSGSKKTLRSSLEGPTILDIEKFHRESFFYTHLINFSETLQQCCDLSQLWFREFFLELTMGRRIQFPIEMSMPWILTDHILETKEASMMEYVLYSLDLYNDSAHYALTRFNKQFLYDEIEAEVNLCFDQFVYKLADQIFAYYKVMAGSLLLDKRLRSECKNQGATIHLPPSNRYETLLKQRHVQLLGRSIDLNRLITQRVSAAMYKSLELAIGRFESEDLTSIVELDGLLEINRMTHKLLSRYLTLDGFDAMFREANHNVSAPYGRITLHVFWELNYDFLPNYCYNGSTNRFVRTVLPFSQEFQRDKQPNAQPQYLHGSKALNLAYSSIYGSYRNFVGPPHFQVICRLLGYQGIAVVMEELLKVVKSLLQGTILQYVKTLMEVMPKICRLPRHEYGSPGILEFFHHQLKDIVEYAELKTVCFQNLREVGNAILFCLLIEQSLSLEEVCDLLHAAPFQNILPRVHVKEGERLDAKMKRLESKYAPLHLVPLIERLGTPQQIAIAREGDLLTKERLCCGLSMFEVILTRIRSFLDDPIWRGPLPSNGVMHVDECVEFHRLWSAMQFVYCIPVGTHEFTVEQCFGDGLHWAGCMIIVLLGQQRRFAVLDFCYHLLKVQKHDGKDEIIKNVPLKKMVERIRKFQILNDEIITILDKYLKSGDGEGTPVEHVRCFQPPIHQSLASS
B3: HSPC300 (natural protein)
chain: MAGQEDPVQREIHQDWANREYIEIITSSIKKIADFLNSFDMSCRSRLATLNEKLTALERRIEYIEARVTKGETLT
B4: WAVE1 (subunit of the recombinant human WRC) (natural protein)
chain: MPLVKRNIDPRHLCHTALPRGIKNELECVTNISLANIIRQLSSLSKYAEDIFGELFNEAHSFSFRVNSLQERVDRLSVSVTQLDPKEEELSLQDITMRKAFRSSTIQDQQLFDRKTLPIPLQETYDVCEQPPPLNILTPYRDDGKEGLKFYTNPSYFFDLWKEKMLQDTEDKRKEKRKQKQKNLDRPHEPEKVPRAPHDRRREWQKLAQGPELAEDDANLLHKHIEVANGPASHFETRPQTYVDHMDGSYSLSALPFSQMSELLTRAEERVLVRPHEPPPPPPMHGAGDAKPIPTCISSATGLIENRPQSPATGRTPVFVSPTPPPPPPPLPSALSTSSLRASMTSTPPPPVPPPPPPPATALQAPAVPPPPAPLQIAPGVLHPAPPPIAPPLVQPSPPVARAAPVCETVPVHPLPQGEVQGLPPPPPPPPLPPPGIRPSSPVTVTALAHPPSGLHPTPSTAPGPHVPLMPPSPPSQVIPASEPKRHPSTLPVISDARSVLLEAIRKGIQLRKVEEQREQEAKHERIENDVATILSRRIAVEYSDSEDDSEFDEVDWLE
B5: Abi2 (subunit of the recombinant human WRC) (natural protein)
chain: MAELQMLLEEEIPGGRRALFDSYTNLERVADYCENNYIQSADKQRALEETKAYTTQSLASVAYLINTLANNVLQMLDIQASQLRRMESSINHISQTVDIHKEKVARREIGILTTNKNTSRTHKIIAPANLERPVRYIRKPIDYTILDDIGHGVKWLLRFKVSTQNMKMGGLPRTTPPTQKPPSPPMSGKGTLGRHSPYRTLEPVRPPVVPNDYVPSPTRNMAPSQQSPVRTASVNQRNRTYSSSGSSGGSHPSSRSSSRENSGSGSVGVPIAVPTPSPPSVFPAPAGSAGTPPLPATSASAPAPLVPATVPSSTAPNAAAGGAPNLADGFTSPTPPVVSSTPPTGHPVQFYSMNRPASRHTPPTIGGSLPYRRPPSITSQTSLQNQMNGGPFYSQNPVSDTPPPPPPVEEPVFDESPPPPPPPEDYEEEEAAVVEYSDPYAEEDPPWAPRSYLEKVVAIYDYTKDKEDELSFQEGAIIYVIKKNDDGWYEGVMNGVTGLFPGNYVESIMHYSE

Assays:
[1] = target: B4; test: AUC
[2] = target: B2; test: co-expression and purification of the complex

B1
stoichiometry N [1]: 1

B2
stoichiometry N [1]: 1

B3
stoichiometry N [1]: 1

B4
binding result [2]: binds

B5
stoichiometry N [1]: 1
